Columns and labels:
[1] = tested on: T1, Nc1ncnc2c1ncn2[C@@H]1O[C@H](COP(=O)(O)OP(=O)(O)OP(=O)(O)O)[C@@H](O)[C@H]1O; experiment: coupled pyruvate kinase/lactate dehydrogenase NADH ATPase assay, Hill fit; assay type: biochemical, Thermus thermophilus; details: 10 mM MgCl2, 25 mM Hepes pH 7.8, 25 mM KCl, 0.01% Tween 20, 25 °C, ATP 50 μM to 3 mM, 1 μM ClpB
T1 construct: N-terminal domain removed, starts at residue 141; His6 tag with TEV site (pET28b); expressed in E. coli BL21 (DE3) pLysS; homohexamer
Description: coupled pyruvate kinase/lactate dehydrogenase NADH ATPase assay, Hill fit on ΔN-ClpB (ClpB) | plotted as a function of ATP concentration and fitted to the Hill equation

[2] = molecular target: ClpB hexamer assembled with a single double-labeled S359C-Y646C protomer (PL3 variant) (Thermus thermophilus) (UniProt Q9RA63)
Sequence of ClpB hexamer assembled with a single double-labeled S359C-Y646C protomer (PL3 variant) (Thermus thermophilus) (Q9RA63 141-854 S359C/Y646C, chain 1 of 2): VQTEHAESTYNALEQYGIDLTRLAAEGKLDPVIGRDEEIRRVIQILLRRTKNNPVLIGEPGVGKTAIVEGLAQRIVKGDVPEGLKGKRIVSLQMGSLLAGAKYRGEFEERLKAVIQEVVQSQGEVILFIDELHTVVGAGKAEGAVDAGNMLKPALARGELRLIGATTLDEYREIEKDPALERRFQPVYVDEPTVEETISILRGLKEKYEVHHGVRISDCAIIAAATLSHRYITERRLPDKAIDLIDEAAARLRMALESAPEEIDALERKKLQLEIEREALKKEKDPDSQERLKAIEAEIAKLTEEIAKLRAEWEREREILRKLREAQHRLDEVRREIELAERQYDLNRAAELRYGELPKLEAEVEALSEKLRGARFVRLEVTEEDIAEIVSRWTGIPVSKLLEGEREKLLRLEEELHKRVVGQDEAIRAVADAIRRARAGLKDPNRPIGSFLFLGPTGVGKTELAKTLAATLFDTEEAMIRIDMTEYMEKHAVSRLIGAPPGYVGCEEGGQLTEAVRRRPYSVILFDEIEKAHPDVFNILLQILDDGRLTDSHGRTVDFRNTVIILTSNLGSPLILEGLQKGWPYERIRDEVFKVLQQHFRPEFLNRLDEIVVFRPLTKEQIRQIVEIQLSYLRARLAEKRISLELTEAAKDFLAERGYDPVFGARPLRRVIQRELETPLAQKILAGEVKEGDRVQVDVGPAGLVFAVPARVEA
Sequence of ClpB hexamer assembled with a single double-labeled S359C-Y646C protomer (PL3 variant) (Thermus thermophilus) (Q9RA63 141-854, stated change not applied, chain 2 of 2): as the sequence (Q9RA63 141-854 S359C/Y646C, chain 1 of 2) above, with C219S, C506Y counted along it

[3] = molecular target: ClpB hexamer assembled with a single double-labeled S236C-S359C protomer (PL1 variant) (Thermus thermophilus) (UniProt Q9RA63)
Sequence of ClpB hexamer assembled with a single double-labeled S236C-S359C protomer (PL1 variant) (Thermus thermophilus) (Q9RA63 141-854 S236C/S359C, chain 1 of 2): as the sequence (Q9RA63 141-854 S359C/Y646C, chain 1 of 2) above, with S96C, C506Y counted along it
Sequence of ClpB hexamer assembled with a single double-labeled S236C-S359C protomer (PL1 variant) (Thermus thermophilus) (Q9RA63 141-854, stated change not applied, chain 2 of 2): as the sequence (Q9RA63 141-854 S359C/Y646C, chain 1 of 2) above, with C219S, C506Y counted along it

[4] = molecular target: ClpB hexamer assembled with a single double-labeled S236C-S359C protomer (PL1 variant) (Thermus thermophilus) (UniProt Q9RA63); remark: listed apart in the source

Sequence of ΔN-ClpB (ClpB) (Thermus thermophilus HB8) (chain, as listed by the source mutant): as the sequence (Q9RA63 141-854 S359C/Y646C, chain 1 of 2) above, with C219S, C506Y counted along it

Substance	K0.5 [1] [µM]	smFRET: substrate-response factor R3 (ratio of K12^3 with and without 20 μM κ-casein), with ADP [2]	smFRET: substrate-response factor R3 (ratio of K12^3 with and without 20 μM κ-casein), with ATP [2]	smFRET: substrate-response factor R3 (ratio of K12^3 with and without 20 μM κ-casein), with ATPγS [2]	smFRET with two-state H2MM analysis, 2 mM ATP: population ratio K12^1 of the two PL1 states without and with 20 μM κ-casein [3]	smFRET: substrate-response factor R1 (ratio of K12^1 with and without 20 μM κ-casein), with ATP [4]
ΔN-ClpB (ClpB) (Thermus thermophilus HB8)	300 ± 20					
κ-casein (from UniProt P02668 22-190) (natural protein)		1.71	2.28	1.34	0.81	1.68

— paper PMC8442866, “Ultrafast pore-loop dynamics in a AAA+ machine point to a Brownian-ratchet mechanism for protein translocation” (Science Advances, 2021)
